Data published in patent publication US20060183130A1 (VANDERBILT UNIVERSITY, published 2006).

Target: T1, endogenous c-Myc of p53-/- mouse embryo fibroblasts (mouse, UniProt P01108-2 1-439, limits assumed)
T1 construct: Endogenous protein in a cell lysate
Experiment: co-IP, summary of the experiments (endogenous proteins)
Source text: FIGS. 2A-F ARF—binds to c-Myc. FIGS. 2A-D, Coimmunoprecipitation of ARF and c-Myc. Cos-7 cells transfected with c-Myc and/or ARF were subjected to immunoprecipitation (IP) using anti-Mycfl (fl, full length; FIG. 2A) or anti-ARF (FIG. 2B) followed by immunoblot (IB) analysis using the indicated antibody. FIG. 2C, c-myc^{-/-} cells, ARF^{-/-} MEFs or p53^{-/-} MEFs were subjected to IP using anti-Mycfl followed by IB analysis. FIG. 2D, HeLa cells were subjected to IP using anti-p14ARF or anti-Mycfl followed by IB analysis. FIG. 2E, Coimmunoprecipitation of c-Myc deletions with ARF. Cos-7 cells transfected with the indicated c-Myc deletion mutant were subjected to IP with anti-ARF followed by IB analysis. FIG. 2F, Schematic representation of the structure of c-Myc and c-Myc deletions showing relative binding to ARF.
Immunoprecipitation and Immunoblotting Analysis. Cell lysates were prepared and coimmunoprecipitation of endogenous proteins was performed as described previously (Weber et al., 1999). For coimmunoprecipitation of exogenous proteins, cells were lysed in Ab lysis buffer (20 mM Tris, pH 7.5, 0.5% Triton X-100, 0.5% deoxycholic acid (DOC) and 0.5% SDS, 1 mM EDTA) and immunoprecipitates were subjected immunoblot analysis using anti-c-Mycfl (06-340, Upstate) or anti-ARF (Ab80, GeneTex; 07-543, Upstate) and enhanced chemiluminescence for detection. […]

T1 sequence (P01108 16-454 limits assumed): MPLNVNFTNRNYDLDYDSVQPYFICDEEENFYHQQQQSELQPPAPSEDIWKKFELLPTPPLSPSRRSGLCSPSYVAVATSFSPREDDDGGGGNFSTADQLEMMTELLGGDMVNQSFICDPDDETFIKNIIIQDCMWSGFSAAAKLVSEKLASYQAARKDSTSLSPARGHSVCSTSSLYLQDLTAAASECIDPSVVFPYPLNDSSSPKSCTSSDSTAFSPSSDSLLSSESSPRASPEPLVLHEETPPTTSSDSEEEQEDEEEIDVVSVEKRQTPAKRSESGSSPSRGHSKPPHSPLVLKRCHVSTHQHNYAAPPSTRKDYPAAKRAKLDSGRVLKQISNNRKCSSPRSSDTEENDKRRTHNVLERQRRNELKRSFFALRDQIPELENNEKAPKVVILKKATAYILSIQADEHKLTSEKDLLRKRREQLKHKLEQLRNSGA

B1: mouse p19ARF (murine p19Arf) (other)
chain: MGRRFLVTVRIQRAGRPLQERVFLVKFVRSRRPRTASCALAFVNMLLRLERILRRGPHRNPGPGDDDGQRSRSSSSAQLRCRFELRGPHYLLPPGARRSAGRLPGHAGGAARVRGSAGCARCLGSPAARLGPRAGTSRHRAIFAFRWVLFVFRWVVFVYRWERRPDRRA
binding result: binds
